Reference: patent publication US20230052369A1 (published 2023)

B1: v20036 (antibody, V domains shown)
VH: QVQLQESGPGLVQPTQSLSITCTVSGFSLISYGVHWVRQSPGKGLEWLGVIWSGGSTDYNAAFISRLSISKDNSKSQVFFKMNSLQADDTAIYYCARNPLTATVMDYWGQGTSVTVSS
VL: DIVMTQSQKFMSTSVGDRVSVTCKASQNVGTNVAWYQQKPGQSPKALIYSASYRDSGVPDRFTGSGSGTDFTLTISNVQSEDLAEYLCQQYNSYPLTFGAGTKLELKR
B2: v28696 (antibody, V domains shown)
VH: QVQLQESGPGLVKPSETLSLTCTVSGFSLISYGVHWIRQPPGKGLEWIGVIWSGGSTDYNPSLKSRVTISVDTSKNQFSLKLSSVTAADTAVYYCARNPLTATVMDYWGQGTLVTVSS
VL: DIQMTQSPSSLSASVGDRVTITCRASQNVGTNVAWYQQKPGKAPKALIYSASYRDSGVPSRFSGSGSGTDFTLTISSLQPEDFATYYCQQYNSYPLTFGGGTKVEIKR

Key:
[1] = target: T1, purified human monomeric 4-1BB (UniProt Q07011 24-186); experiment: SPR; 25 °C
[2] = target: T1, purified human monomeric 4-1BB; experiment: SPR; 25 °C, steady state affinity

T1 sequence (Q07011 other isoform, or with tags, fused parts or gaps): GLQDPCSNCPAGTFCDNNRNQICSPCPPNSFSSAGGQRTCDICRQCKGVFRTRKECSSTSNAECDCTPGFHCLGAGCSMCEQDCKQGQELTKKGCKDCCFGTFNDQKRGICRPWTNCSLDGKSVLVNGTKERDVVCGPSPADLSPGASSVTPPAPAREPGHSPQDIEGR

| Binder | Kd [1] [nM] | Kd [2] [nM] |
| --- | --- | --- |
| B1 | 256 |  |
| B2 |  | 687 |
